Laboratory results reported in patent US20160009772A1 (published 2016).
Primed or numbered codes have the meaning given here. FITC′ = fluorescein isothiocyanate; Ahx = NCCCCCC(=O)O

Target: N-terminal His (six histadine)-tagged IRF5 (222-425) SEQ ID NO 22 (UniProt Q13568 222-425)
Test: TR-FRET

N-terminal His (six histadine)-tagged IRF5 (222-425) SEQ ID NO 22, sequence (Q13568 other isoform, or with tags, fused parts or gaps): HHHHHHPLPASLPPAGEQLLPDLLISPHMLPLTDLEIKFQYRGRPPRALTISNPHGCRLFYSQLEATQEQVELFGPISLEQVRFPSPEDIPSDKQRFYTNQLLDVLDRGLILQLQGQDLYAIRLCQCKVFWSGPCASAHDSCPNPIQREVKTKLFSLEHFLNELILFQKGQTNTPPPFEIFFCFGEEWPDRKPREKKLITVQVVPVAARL

Kd [nM] | Binder
930 | {FITC′-Ahx}-IRLQISNPYLKFIPLKRAIWLIK-NH2 [FITC-Aha-IRLQISNPYLKFIPLKRAIWLIK-NH2 (SEQ ID NO: 16)]
530 | {FITC′-Ahx}-MIILIISFPKHKDWKVILVK-NH2 [FITC-Aha-MIILIISFPKHKDWKVILVK-NH2 (SEQ ID NO: 17)]
